B1: SEC22B (parent)
chain: FPKKLAFAYLEDLHSEFDEQHGKK
B2: SOAT1 (parent)
chain: KSAAMLAVFAVSAVVHEYALAVCL

Variants of: B1
Assay: protein stability index of a GFP-peptide fusion (GPS, HEK-293T) (PSI 1-6); higher = more stable
Settings: c terminus: a fixed tail appended
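Note: lentivirally expressed fusions sorted by FACS into six bins by GFP to DsRed ratio, PSI derived from sequencing read proportions per bin multiplied by bin number.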

Protein stability index: each site, then its substitutions
K4: C 1.78; N 2.27; A 1.81; G 2.72; W 1.05; T 2.47; E 4.95; P 2.45; I 2.02; Y 1.95; V 2.25; Q 2.52; H 2.87; M 2.02; F 1.97; R 1.61; D 3.31; S 1.55; L 2.18
A6: Q 3.18; F 2.4; T 3.03; N 2.56; V 2.45; G 2.45; H 2.91; S 2.69; E 3.96; W 2.74; P 3.06; D 3.13; M 2.3; K 2.59; I 2.35; Y 1.66; L 1.83; C 2.29; R 2.28
F1: A 4.36; Q 4.51; M 3.97; V 4.13; E 5.41; P 4.6; G 4.02; H 3.84; D 4.93; L 3.79; N 4.88; R 3.98; S 4.52; C 4.01; Y 2.53; W 3.51; I 3.56; T 4.37; K 4.8
E11: A 2.29; G 2.08; H 1.86; P 1.8; M 2.17; L 2.35; K 2.63; D 2.37; T 2.64; S 1.78; C 1.88; N 2.61; V 1.77; Q 1.94; I 1.87; W 2.02; Y 1.98; F 1.97; R 2.24
L5: N 2.65; A 2.15; S 2.64; R 2.65; G 2.41; Q 3.18; I 2.98; C 1.66; P 1.77; H 1.95; F 2.17; D 3.26; W 1.59; Y 2.52; K 2.85; E 3.56; T 3.02; V 2.9; M 1.84
H14: I 1.68; T 2.89; W 2.06; N 2.46; L 2.31; D 2.53; Q 2.85; A 2.47; M 2.23; K 2.96; R 2.55; E 2.13; S 2.75; P 2.2; Y 2.28; F 1.91; C 2.07; V 1.98; G 2.57
F7: Q 4.16; A 3.63; Y 2.5; W 1.95; T 3.33; D 3.98; G 3.8; N 3.79; K 3.8; H 3.42; V 2.67; P 3.39; E 4; M 2.53; I 3.24; C 3.47; L 2.65; R 3.28; S 3.8
L10: A 2.47; D 3.56; E 3.35; W 2.27; T 3.16; H 2.75; M 2.43; V 2.11; K 3.46; N 3.33; I 2.34; Q 3.39; C 2.21; S 3.15; F 2.31; G 2.78; R 2.75; Y 2.84; P 2.92
K3: Q 2.4; R 2.42; W 1.96; P 3.08; F 1.91; S 2.01; G 2.29; H 1.17; L 2.79; C 1.69; A 1.91; D 2.25; N 2.23; E 2.95; Y 1.74; M 2.2; T 2.53; I 2.17; V 2.53
D12: M 2.39; I 1.72; L 1.77; V 1.85; C 1.95; Y 1.89; H 2.25; G 2.77; A 2.1; R 1.93; E 3.72; S 2.16; F 1.97; W 2.49; N 2.97; P 2.33; K 2.38; Q 2.22; T 2.39
P2: W 1.95; A 1.84; D 4.59; Q 2.88; C 1.87; Y 2.16; G 3.38; T 3.05; E 4.11; N 3.44; H 2.17; F 2.62; M 3.04; I 1.98; S 3.06; V 2.29; R 2.94; L 1.68; K 2.55
Y9: G 3.27; H 3.1; K 3.08; R 3.09; W 1.67; N 3.67; A 2.85; F 1.99; P 2.9; I 1.8; T 2.5; V 2.2; C 2.18; D 3.15; S 2.73; L 2.63; Q 2.91; M 2.48; E 3.04
S15: E 2.9; G 2.25; C 2.25; I 2.25; K 2.54; A 2.15; H 2.22; D 2.89; F 2.15
L13: G 3.51; F 2.5; V 2.55; E 3.23; R 2.79; T 2.79; M 2.3; C 2.83; S 2.56; I 2.62; A 3.2; D 2.54; H 2.93; P 2.61; W 2.99; Q 3.21; K 3.2; Y 2.47; N 3.13
A8: H 2.72; P 2.84; N 2.83; R 2.34; Q 3.08; I 2.4; S 3.06; G 3.04; K 2.91; D 3.39; L 1.88; E 3.27; T 2.64; M 2.68; F 2.26; C 2.09; V 2.31; Y 1.79

Variants of: B2
Assay: as above
Settings: c terminus: a fixed tail appended

Protein stability index: each site, then its substitutions
A21: I 1.6; M 3.82; F 3.01; N 3.11; L 3; S 4.49; D 3.15; E 3.42
E17: N 2.23; C 2.5; F 2.73; Q 3.61; G 1.39; T 3.21
Y18: W 3.5; D 2.21; M 1.85; P 2.23; Q 2.56; F 4.1
A19: R 3.46; Y 2.56; M 2.47; Q 2.44; K 2.39; L 3.87; H 2.88
C23: H 2.03; P 5.3; Q 2.32; V 2.34; K 3.89; D 3.23; A 1.18; S 3.48; I 3.12
V22: R 4.03; I 4.34; C 3.03; T 3.08; A 3.06; H 2.82
L20: C 2.93; I 1.49; N 4.2; E 3.95; K 2.58; W 3.92; T 2.31; S 2.62; Q 4.49
L24: K 4.06; I 2.33; N 2.87; P 2.62; Y 1.98; A 3.7; T 5.26; F 2.33; D 3.9

From the supplement of paper PMC10567573
